Experimental findings from PMC4499151, “Identifying high-affinity aptamer ligands with defined cross-reactivity using high-throughput guided systematic evolution of ligands by exponential enrichment” are described below.

Some results are limits rather than exact numbers.

One series concerns human IgG (human). In words: filter binding. To be noted: Double filter binding, 37 C, binding buffer not detailed, selection buffer 20 mM HEPES, 2 mM CaCl2, 0.1 mg/ml BSA, 100-150 mM NaCl, pH 7.5.
In another series the target is T1, human IL-10RA-Fc fusion (human, UniProt Q13651 22-235).
T1 sequence: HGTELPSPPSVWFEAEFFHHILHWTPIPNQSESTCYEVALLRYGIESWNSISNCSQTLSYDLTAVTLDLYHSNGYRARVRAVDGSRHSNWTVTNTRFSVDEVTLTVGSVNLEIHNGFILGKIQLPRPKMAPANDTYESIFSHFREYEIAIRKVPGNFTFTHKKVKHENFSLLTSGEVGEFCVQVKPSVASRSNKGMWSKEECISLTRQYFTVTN
Kind of series: filter binding; Double filter binding, 37 C, binding buffer not detailed; selection buffer 20 mM HEPES, 2 mM CaCl2, 0.1 mg/ml BSA, 100-150 mM NaCl, pH 7.5. To be noted: protein: commercial; tags: Fc fusion; chain copies: 2; label: 5' 32P.

As to “GGGAGAGAGGAAGAGGGAUGGGAAAGACCGUUUUUUAAAACGCUCAAUAUACACGACAUAAACGACGACUCGCUGAGAUCGAGA [446 (#3)]”, the dissociation constant (Kd) (commonly the free concentration of one partner at which half of the binding sites on the other are occupied at equilibrium, for simple one-to-one binding) in the series with human IgG (human) was over 500 nM. Still for that read-out and setting: the figure for “GGGAGAGAGGAAGAGGGAUGGGUGCUUCAUAGAAACGCGCGAUCUUCCUGUGCGACGACUCGCUGAGAUCGAGA [RJB#44]” is over 1000 nM. On the same count and under the same terms, the figure for “GGGAGAGAGGAAGAGGGAUGGGUGCUCGUUUCGAACCAUCGUAACUCCUGUGCGACGACUCGCUGAGAUCGAGA [RJB#161]” is over 1000 nM; for “GGGAGAGAGGAAGAGGGAUGGGUGCUCACAAACGUGAACCAUCGUCUUGUGCCGACGACUCGCUGAGAUCGAGA [RJB#23]” it is over 1000 nM; for “GGGAGAGAGGAAGAGGGAUGGGAGCCAUGACGAUGUCGUUACGUAGAUGCAGAGACUCCUAACGACGACUCGCUGAGAUCGAGA [411-J]” it is over 500 nM. “GGGAGAGAGGAAGAGGGAUGGGUGCUCCUACUGUGGAACCAUCGUUCUUGUGCGACGACUCGCUGAGAUCGAGA [RJB#17]” yielded a Kd in the series with human IgG (human) of over 1000 nM. Same read-out and setting: the same measure for “GGGAGAGAGGAAGAGGGAUGGGCGUCUCGUCAAUGCCCUACGUUUGUCUGUGCGACGACUCGCUGAGAUCGAGA [RJB#13]”: over 1000 nM.

For “GGGAGAGAGGAAGAGGGAUGGGUGCUCAAUUAAGAACCAUCGCUCUCCGGUGCGACGACUCGCUGAGAUCGAGA [RJB#25]”, the Kd in the series on human IgG (human) was over 1000 nM.

Turning to “GGGAGAGAGGAAGAGGGAUGGGAAUCGCUCAGCCGGUCCGGAACUGGCAAAGUCAGGUGCUCCGACGACUCGCUGAGAUCGAGA [405 (cluster E)]”, in the series on human IgG (human) (column inferred from text), the Kd turned out to be 120 nM. In the series on human IgG (human), “GGGAGAGAGGAAGAGGGAUGGGUGCUCACAUACGUGAACCAUCGUCAAUGGCCGACGACUCGCUGAGAUCGAGA [RJB#10]” yielded a Kd of over 1000 nM. Still for that read-out and setting: the figure for “GGGAGAGAGGAAGAGGGAUGGGUGCUCAUCUUGAACGCAUUGUUUCUCCGUGCGACGACUCGCUGAGAUCGAGA [RJB#31]” is over 500 nM.

B1: 411-J-A1G (ssRNA)
RNA: GGGAGAGAGGAAGAGGGAUGGGGGCCAUGACGAUGUCGUUACGUAGAUGCAGAGACUCCUAACGACGACUCGCUGAGAUCGAGA
B1 displayed a Kd with human IL-10RA-Fc fusion of 9 nM.

B2: 411-J-G7T (ssRNA)
RNA: GGGAGAGAGGAAGAGGGAUGGGAGCCAUUACGAUGUCGUUACGUAGAUGCAGAGACUCCUAACGACGACUCGCUGAGAUCGAGA
In the series with human IL-10RA-Fc fusion, B2 registered a Kd of 18 nM.

B3: 411-J-G30T (ssRNA)
RNA: GGGAGAGAGGAAGAGGGAUGGGAGCCAUGACGAUGUCGUUACGUAGAUGCAUAGACUCCUAACGACGACUCGCUGAGAUCGAGA
For the molecule B3, the Kd in the series with human IL-10RA-Fc fusion amounted to 18 nM. This counts as double-digit nanomolar.

B4: 411-J-C28T (ssRNA)
RNA: GGGAGAGAGGAAGAGGGAUGGGAGCCAUGACGAUGUCGUUACGUAGAUGUAGAGACUCCUAACGACGACUCGCUGAGAUCGAGA
In turn, B4 returned a Kd with human IL-10RA-Fc fusion of 18 nM.
